The source of these data is patent US20160251440A1 (Ablynx, published 2016).

Experiment [1] deals with T1, recombinant IL-3Rα ectodomain (human, UniProt P26951 19-305).
T1 construct: extracellular domain; also called recombinant IL-3Ra; biotinylated-IL-3Rα ectodomain
T1 sequence (looked up): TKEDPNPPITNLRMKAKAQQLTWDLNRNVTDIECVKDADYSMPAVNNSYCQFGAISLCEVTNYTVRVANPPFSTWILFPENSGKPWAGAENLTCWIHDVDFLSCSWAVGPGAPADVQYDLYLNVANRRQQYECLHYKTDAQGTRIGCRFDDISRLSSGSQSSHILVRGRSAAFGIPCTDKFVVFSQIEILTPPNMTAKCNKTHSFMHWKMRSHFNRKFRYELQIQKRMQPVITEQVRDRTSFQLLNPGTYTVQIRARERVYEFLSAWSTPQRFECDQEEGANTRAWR
The experiment is described as follows: ELISA on recombinant IL-3Ra ectodomain (panel 'IL-3Ra ELISA', lower left). On the technique in general: In an ELISA, binding on a coated surface is turned into a signal by an enzyme label.

For experiment [2], the target named is T2, CXCR4 and IL-3Rα (CD123) co-expressed on MOLM-13 / THP-1 cells (human, UniProt P61073 1-352; P26951 19-378).
T2 construct: whole, on cells; two separate membrane proteins on one cell, not a complex; target of bispecifics on double-positive cells; also called CXCR4+/CD123+ cells
T2 sequence (P61073 whole entry, one chain of several): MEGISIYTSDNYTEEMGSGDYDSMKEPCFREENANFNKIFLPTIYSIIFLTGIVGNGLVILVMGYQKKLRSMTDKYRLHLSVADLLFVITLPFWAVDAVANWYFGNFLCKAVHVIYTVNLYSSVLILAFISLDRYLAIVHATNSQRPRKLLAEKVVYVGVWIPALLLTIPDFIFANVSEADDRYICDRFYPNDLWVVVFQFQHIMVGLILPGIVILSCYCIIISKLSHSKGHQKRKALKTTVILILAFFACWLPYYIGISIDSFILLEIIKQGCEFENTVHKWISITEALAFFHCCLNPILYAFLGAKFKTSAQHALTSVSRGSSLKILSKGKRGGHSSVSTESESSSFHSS
The experiment is described as follows: flow cytometry on MOLM-13 cells (IL-3Ra higher than CXCR4).

Experiment [3] has as its target T3, human CXCR4 (on cells, viral lipoparticles or membrane extracts) (human, UniProt P61073 1-352). The experiment is described as follows: cell-based or functional assay.
In experiment [4] the target is T3, human CXCR4 (on cells, viral …). The experiment is described as follows: FACS, Caki-CXCR4 cells. (In general: A flow cytometer gives signals particle by particle.)
The target in experiment [5] is T1, recombinant IL-3Rα ectodomain. The experiment is described as follows: ELISA on recombinant IL-3Ra ectodomain (both lower panels).
The target of experiment [6] is T3, human CXCR4 (on cells, viral …). The experiment is described as follows: ELISA, CXCR4 viral lipoparticles.
Experiment [7] shares this target. The experiment is described as follows: FACS, Jurkat cells.
The target is the same in experiment [8]. The experiment is described as follows: cell-based or functional assay. The source holds these as a separate data set.
For experiment [9] the target is unchanged. The experiment is described as follows: FACS displacement of 30 nM biotin-SDF-1, Caki-CXCR4 cells.
Experiment [10] concerns the target T4, human CD4, cell-expressed (human, UniProt P01730 26-458).
T4 construct: whole, on cells
The experiment is described as follows: flow cytometry on MOLM-13 cells (CD4, no IL12R or IL23R), upper left panel.

In experiment [11] the target is T5, human IL12Rβ1, cell-expressed (human, UniProt P42701 24-662).
T5 construct: whole, on cells; in the context of the heterodimeric receptor; also called IL12Rb1
The experiment is described as follows: flow cytometry on isolated CD8+ T cells of donor D863, anti-Flag detection.

Experiment [12] has as its target T6, human IL12Rβ2 extracellular domain Fc-fusion (human, UniProt Q99665 24-622).
T6 construct: extracellular domain; bought; also called IL12Rβ2-Fc; hIL-12Rβ2-Fc
T6 sequence (looked up): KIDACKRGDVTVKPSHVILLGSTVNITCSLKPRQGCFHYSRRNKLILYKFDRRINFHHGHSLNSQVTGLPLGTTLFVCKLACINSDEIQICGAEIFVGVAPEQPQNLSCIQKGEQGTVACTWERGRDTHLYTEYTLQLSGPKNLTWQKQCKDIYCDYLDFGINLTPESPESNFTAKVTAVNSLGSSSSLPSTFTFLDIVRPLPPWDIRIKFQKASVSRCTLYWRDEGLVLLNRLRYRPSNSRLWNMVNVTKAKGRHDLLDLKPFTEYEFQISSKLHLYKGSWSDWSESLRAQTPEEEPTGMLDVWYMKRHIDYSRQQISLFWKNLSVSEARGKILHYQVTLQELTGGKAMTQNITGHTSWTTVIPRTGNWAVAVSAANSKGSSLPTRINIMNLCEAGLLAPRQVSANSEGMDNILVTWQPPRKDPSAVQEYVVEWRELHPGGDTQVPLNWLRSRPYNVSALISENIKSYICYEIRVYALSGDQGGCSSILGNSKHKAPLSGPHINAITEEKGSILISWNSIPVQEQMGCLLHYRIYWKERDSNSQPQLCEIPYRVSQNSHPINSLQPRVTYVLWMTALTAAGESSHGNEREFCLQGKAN
The experiment is described as follows: competition ELISA, coated IL-12 + 3 nM IL12Rβ2-Fc.

For experiment [13], the target named is T6, human IL12Rβ2 extracellular domain …. The experiment is described as follows: SPR Biacore T100, captured IL12Rβ2-Fc. On the technique in general: SPR reads the build-up and loss of mass on a sensor chip optically.
The target of experiment [14] is T7, human IL12Rβ2, cell-expressed (human, UniProt Q99665 24-862).
T7 construct: whole, on cells; in the context of the heterodimeric receptor; also called IL12Rb2
T7 sequence (looked up): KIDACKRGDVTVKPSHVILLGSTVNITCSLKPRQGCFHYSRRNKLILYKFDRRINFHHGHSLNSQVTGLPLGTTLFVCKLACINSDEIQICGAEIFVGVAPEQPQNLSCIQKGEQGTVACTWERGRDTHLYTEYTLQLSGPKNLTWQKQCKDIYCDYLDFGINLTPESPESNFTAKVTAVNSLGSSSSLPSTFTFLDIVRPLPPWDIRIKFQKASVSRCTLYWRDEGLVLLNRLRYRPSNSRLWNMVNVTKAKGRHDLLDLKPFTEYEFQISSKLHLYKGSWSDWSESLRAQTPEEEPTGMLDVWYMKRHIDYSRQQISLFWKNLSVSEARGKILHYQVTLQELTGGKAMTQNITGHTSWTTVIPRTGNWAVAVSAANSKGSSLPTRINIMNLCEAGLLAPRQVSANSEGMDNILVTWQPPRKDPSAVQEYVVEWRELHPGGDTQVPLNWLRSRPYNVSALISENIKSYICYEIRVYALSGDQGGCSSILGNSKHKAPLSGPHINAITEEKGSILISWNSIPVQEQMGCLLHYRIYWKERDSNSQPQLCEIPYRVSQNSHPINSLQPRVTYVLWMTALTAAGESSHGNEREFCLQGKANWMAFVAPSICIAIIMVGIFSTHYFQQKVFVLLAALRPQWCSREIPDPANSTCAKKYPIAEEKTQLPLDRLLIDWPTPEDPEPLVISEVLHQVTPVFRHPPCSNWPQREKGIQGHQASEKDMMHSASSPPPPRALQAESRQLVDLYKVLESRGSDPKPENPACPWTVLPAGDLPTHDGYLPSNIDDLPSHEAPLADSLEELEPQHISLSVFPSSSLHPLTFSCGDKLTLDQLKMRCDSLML
The experiment is described as follows: FACS, activated human T cells.

Experiment [15] concerns the target T6, human IL12Rβ2 extracellular domain …. The experiment is described as follows: competition ELISA, coated IL-12 + IL12Rβ2-Fc.
In experiment [16] the target is T7, human IL12Rβ2, cell-expressed. The experiment is described as follows: cell-based or functional assay.

Where a chain is given by its changes, count along the chain named.

T3 sequence (P61073 whole entry): as the sequence (P61073 whole entry, one chain of several) above

B1: 55A01-35GS-281F12 (bispecific antibody)
chain: EVQLVESGGGSVQAGGSLRLSCTTSGRALNMYVMGWFRQAPGNEREFVAATSSSGGSTSYPDSVKGRFTISRDNAKNTVYLQMNSLKPEDTAAYRCAASPYVSTPTMNILEEYRYWGQGTLVTVSSGGGGSGGGGSGGGGSGGGGSGGGGSGGGGSGGGGSEVQLVESGGGLVQAGDSLRLSCAASGRAFSRYAMGWFRQAPGKEREFVAAIGWGPSKTNYADSVKGRFTISRDNAKNTVYLQMNTLKPEDTAVYSCAAKFVNTDSTWSRSEMYTYWGQGTLVTVSS
notes: also called CD123#2-CXCR4#2; 55A01-281F12
For orientation: EC50 (read off the curve) means the concentration that produces a half-maximal response. In the case of B1, the figures for the “EC50 (read off the curve)” value in [1] and in [2] were ~1 nM and ~10 nM, respectively.

B2: 55A01-35GS-14D09 (bispecific antibody)
chain: EVQLVESGGGSVQAGGSLRLSCTTSGRALNMYVMGWFRQAPGNEREFVAATSSSGGSTSYPDSVKGRFTISRDNAKNTVYLQMNSLKPEDTAAYRCAASPYVSTPTMNILEEYRYWGQGTLVTVSSGGGGSGGGGSGGGGSGGGGSGGGGSGGGGSGGGGSEVQLVESGGGLVQAGGSLRLSCVASGISSSKRNMGWYRQAPGKQRESVATISSGGNKDYTDAVKDRFTISRDTTKNTVYLQMNSLKPEDTAVYYCKIEAGTGWATRRGYTYWGQGTLVTVSS
notes: FLAG3-His6 also made; also called CD123#2-CXCR4#1; 55A01-14D09
For B2, in [1], the “EC50 (read off the curve)” value is ~1 nM. Further, in experiment [3], the “Fold inc. vs CXCR4#1, Jurkat E6-1” value was 0.12 fold; the “Fold inc. vs CXCR4#1, MOLM-13” value turned out to be 0.03 fold; the “IC50, CXCL-12 chemotaxis, Jurkat E6-1” value turned out to be 85 nM; the “IC50, CXCL-12 chemotaxis, MOLM-13” value came to 290 nM.

B3: 14D09 (VHH)
VHH: EVQLVESGGGLVQAGGSLRLSCVASGISSSKRNMGWYRQAPGKQRESVATISSGGNKDYTDAVKDRFTISRDTTKNTVYLQMNSLKPEDTAVYYCKIEAGTGWATRRGYTYWGQGTLVTVSS
notes: also called CXCR4#1; 14D9
In general, EC50 refers to the concentration at which the effect is half-maximal. As a reminder, the IC50 is the concentration that gives 50% inhibition. On to B3, for which the values for the EC50 in [4], in experiment [6] and in [7] were 9.9 nM, 7.28 nM and 11 nM, respectively. The binding result in experiment [5] is listed as “no binding (tested: 1E-6 M)”. Also, in [8], the “IC50, SDF-1 chemotaxis, Jurkat” value amounted to 11 nM. Further, in experiment [3], the “IC50, CXCL-12 chemotaxis, Jurkat E6-1” value came out at 10.4 nM. Also, in experiment [3], the “IC50, CXCL-12 chemotaxis, MOLM-13” value was found to be 8.62 nM. In addition, the IC50 in experiment [9] came to 18.4 nM.

B4: 14A02 (VHH)
VHH: B3 VHH with K31I, N83S, L117Q
On to B4, for which the concentration for a half-maximal effect (EC50) in [4] turned out to be 4 nM; in experiment [6] it was 0.73 nM; in experiment [7], 1.15 nM. For the same molecule, the “IC50, SDF-1 chemotaxis, Jurkat” value in experiment [8] stood at 0.95 nM. This molecule returned an IC50 in experiment [9] of 4.1 nM.

B5: 14E02 (VHH)
VHH: B3 VHH with K31I, L117Q
notes: also called 14E2
As for B5, the values for the half-maximal effective concentration (EC50) in experiment [4] and in experiment [6] were 2.6 nM and 0.78 nM, respectively. For the same molecule, the IC50 in experiment [9] came out at 13.5 nM.

B6: IL12Rb2#1: 135B08 (VHH)
VHH: EVQLVESGGRLVQAGDSLRLSCAASGRTFISYRMGWFRQAPGKEREFVAALRWSSSNIDYTYYADSVKGRFSISGDYAKNTVYLQMNSLKAEDTAVYYCAASTRWGVMESDTEYTSWGQGTLVTVSS
notes: also called IL12Rβ2#1; LG135B08
The Kd is the constant that tells how readily two partners part at equilibrium. A high value points to lower affinity. In general, koff refers to the first-order rate constant of dissociation. One may read the kon as the rate constant with which the complex forms. Lower therefore signals slow association. With B6, in [10], the binding result is on record as “no binding (tested: 1E-6 M)”. In addition, the binding result in [11] is recorded as “no binding (tested: 250 nM)”. Also, the IC50 in [12] amounted to 4.2 nM. For the same molecule, in experiment [13], the Kd turned out to be 2.7 nM, the off-rate (koff) amounted to 0.00057 s⁻¹ and the kon was determined as 210000 M⁻¹ s⁻¹. This molecule also showed an EC50 in experiment [14] of 1.5 nM. Moreover, the IC50 in experiment [15] was found to be 4.2 nM. In addition, in experiment [16], the “IC50, IFNγ release, PBMC D840” value was 13.5 nM and the “IC50, IFNγ release, T cells D839” value was 51 nM.

B7: IL12Rb2#2: 135A07 (VHH)
VHH: B6 VHH with I30T, A49S, S56G
notes: also called IL12Rβ2#2; LG135A07
Consider B7, for which, in [10], the binding result is reported as “no binding (tested: 1E-6 M)”. In experiment [12], the IC50 was found to be 15 nM. For the same molecule, in experiment [13], the Kd was found to be 6.9 nM, the koff worked out at 0.0018 s⁻¹ and the kon worked out at 270000 M⁻¹ s⁻¹. The concentration for a half-maximal effect (EC50) in [14] is 1.8 nM. Moreover, the IC50 in [15] is 15 nM. Besides, in experiment [16], the “IC50, IFNγ release, PBMC D840” value is 40 nM and the “IC50, IFNγ release, T cells D839” value worked out at 67 nM.
